Laboratory results published in PMC2175199 (The Journal of Cell Biology, 2000).

T1: hSA2 (human (endogenous in HeLa), UniProt Q8N3U4 1-1231)
T1 sequence: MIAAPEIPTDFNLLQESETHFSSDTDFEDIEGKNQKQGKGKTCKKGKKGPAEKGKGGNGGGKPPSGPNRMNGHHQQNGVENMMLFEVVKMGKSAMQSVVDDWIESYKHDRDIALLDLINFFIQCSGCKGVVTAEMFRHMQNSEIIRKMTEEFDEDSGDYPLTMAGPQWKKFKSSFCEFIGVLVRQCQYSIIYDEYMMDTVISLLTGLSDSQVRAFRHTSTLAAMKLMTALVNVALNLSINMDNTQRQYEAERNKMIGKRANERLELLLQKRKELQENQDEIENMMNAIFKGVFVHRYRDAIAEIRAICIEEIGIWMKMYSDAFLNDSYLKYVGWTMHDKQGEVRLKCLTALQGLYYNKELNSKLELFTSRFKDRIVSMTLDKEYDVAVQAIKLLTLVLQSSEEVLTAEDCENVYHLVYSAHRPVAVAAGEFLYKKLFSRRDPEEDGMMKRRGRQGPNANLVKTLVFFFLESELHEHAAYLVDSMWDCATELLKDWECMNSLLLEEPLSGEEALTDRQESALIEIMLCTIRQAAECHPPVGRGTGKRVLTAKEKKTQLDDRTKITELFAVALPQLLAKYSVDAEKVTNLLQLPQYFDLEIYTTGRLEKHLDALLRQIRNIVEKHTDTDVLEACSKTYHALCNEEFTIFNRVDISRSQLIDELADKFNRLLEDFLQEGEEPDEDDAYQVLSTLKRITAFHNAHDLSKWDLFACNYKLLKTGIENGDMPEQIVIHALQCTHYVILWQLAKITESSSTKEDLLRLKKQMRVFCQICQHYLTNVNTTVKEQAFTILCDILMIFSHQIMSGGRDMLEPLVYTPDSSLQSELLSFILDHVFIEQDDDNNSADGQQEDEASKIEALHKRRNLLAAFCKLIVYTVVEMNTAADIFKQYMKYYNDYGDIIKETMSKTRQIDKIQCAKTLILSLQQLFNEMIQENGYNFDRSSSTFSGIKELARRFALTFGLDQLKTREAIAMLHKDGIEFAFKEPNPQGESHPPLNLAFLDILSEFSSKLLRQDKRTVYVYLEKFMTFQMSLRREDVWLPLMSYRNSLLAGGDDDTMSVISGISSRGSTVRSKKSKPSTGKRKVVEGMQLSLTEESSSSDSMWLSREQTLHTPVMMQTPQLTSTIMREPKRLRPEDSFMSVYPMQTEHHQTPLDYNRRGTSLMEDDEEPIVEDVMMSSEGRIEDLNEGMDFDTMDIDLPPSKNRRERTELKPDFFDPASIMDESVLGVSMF

T2: hSA1 (human (endogenous in HeLa), UniProt Q8WVM7 1-1258)
T2 sequence: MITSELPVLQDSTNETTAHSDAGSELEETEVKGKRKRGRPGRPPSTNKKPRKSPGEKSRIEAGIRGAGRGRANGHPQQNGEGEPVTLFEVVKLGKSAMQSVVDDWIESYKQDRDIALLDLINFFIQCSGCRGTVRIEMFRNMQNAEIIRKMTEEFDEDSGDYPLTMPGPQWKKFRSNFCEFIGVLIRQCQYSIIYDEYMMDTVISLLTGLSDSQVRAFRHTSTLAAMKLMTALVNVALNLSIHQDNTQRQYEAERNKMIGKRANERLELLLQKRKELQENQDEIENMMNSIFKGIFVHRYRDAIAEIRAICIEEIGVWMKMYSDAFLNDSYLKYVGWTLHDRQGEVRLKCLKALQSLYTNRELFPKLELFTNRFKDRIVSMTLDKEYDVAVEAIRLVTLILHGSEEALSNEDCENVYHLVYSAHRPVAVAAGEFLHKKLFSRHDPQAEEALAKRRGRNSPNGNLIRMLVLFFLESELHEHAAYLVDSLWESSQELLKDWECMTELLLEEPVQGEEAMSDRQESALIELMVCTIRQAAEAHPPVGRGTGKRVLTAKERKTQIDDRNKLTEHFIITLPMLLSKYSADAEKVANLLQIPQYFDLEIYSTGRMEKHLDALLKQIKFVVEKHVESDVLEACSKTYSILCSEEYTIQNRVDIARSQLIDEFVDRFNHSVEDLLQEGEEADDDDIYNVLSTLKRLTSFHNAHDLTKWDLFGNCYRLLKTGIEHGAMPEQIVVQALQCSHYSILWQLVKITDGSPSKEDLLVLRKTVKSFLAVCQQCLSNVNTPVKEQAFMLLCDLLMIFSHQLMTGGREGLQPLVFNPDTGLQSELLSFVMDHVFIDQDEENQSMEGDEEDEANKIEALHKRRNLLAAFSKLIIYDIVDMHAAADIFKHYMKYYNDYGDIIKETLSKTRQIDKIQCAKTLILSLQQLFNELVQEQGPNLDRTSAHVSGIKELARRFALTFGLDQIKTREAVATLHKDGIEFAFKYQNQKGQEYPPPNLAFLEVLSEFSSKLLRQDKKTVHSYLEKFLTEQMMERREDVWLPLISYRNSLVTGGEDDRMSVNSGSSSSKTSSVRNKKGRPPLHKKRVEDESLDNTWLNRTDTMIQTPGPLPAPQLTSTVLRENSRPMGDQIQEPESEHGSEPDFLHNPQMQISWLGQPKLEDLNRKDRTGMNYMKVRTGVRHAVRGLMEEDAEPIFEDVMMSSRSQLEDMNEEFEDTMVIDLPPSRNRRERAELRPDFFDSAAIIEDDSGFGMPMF

B1: hRAD21 (natural protein)
chain: MFYAHFVLSKRGPLAKIWLAAHWDKKLTKAHVFECNLESSVESIISPKVKMALRTSGHLLLGVVRIYHRKAKYLLADCNEAFIKIKMAFRPGVVDLPEENREAAYNAITLPEEFHDFDQPLPDLDDIDVAQQFSLNQSRVEEITMREEVGNISILQENDFGDFGMDDREIMREGSAFEDDDMLVSTTTSNLLLESEQSTSNLNEKINHLEYEDQYKDDNFGEGNDGGILDDKLISNNDGGIFDDPPALSEAGVMLPEQPAHDDMDEDDNVSMGGPDSPDSVDPVEPMPTMTDQTTLVPNEEEAFALEPIDITVKETKAKRKRKLIVDSVKELDSKTIRAQLSDYSDIVTTLDLAPPTKKLMMWKETGGVEKLFSLPAQPLWNNRLLKLFTRCLTPLVPEDLRKRRKGGEADNLDEFLKEFENPEVPREDQQQQHQQRDVIDEPIIEEPSRLQESVMEASRTNIDESAMPPPPPQGVKRKAGQIDPEPVMPPQQVEQMEIPPVELPPEEPPNICQLIPELELLPEKEKEKEKEKEDDEEEEDEDASGGDQDQEERRWNKRTQQMLHGLQRALAKTGAESISLLELCRNTNRKQAAAKFYSFLVLKKQQAIELTQEEPYSDIIATPGPRFHII
B2: hSMC1 (natural protein)
chain: MGFLKLIEIENFKSYKGRQIIGPFQRFTAIIGPNGSGKSNLMDAISFVLGEKTSNLRVKTLRDLIHGAPVGKPAANRAFVSMVYSEEGAEDRTFARVIVGGSSEYKINNKVVQLHEYSEELEKLGILIKARNFLVFQGAVESIAMKNPKERTALFEEISRSGELAQEYDKRKKEMVKAEEDTQFNYHRKKNIAAERKEAKQEKEEADRYQRLKDEVVRAQVQLQLFKLYHNEVEIEKLNKELASKNKEIEKDKKRMDKVEDELKEKKKELGKMMREQQQIEKEIKEKDSELNQKRPQYIKAKENTSHKIKKLEAAKKSLQNAQKHYKKRKGDMDELEKEMLSVEKARQEFEERMEEESQSQGRDLTLEENQVKKYHRLKEEASKRAATLAQELEKFNRDQKADQDRLDLEERKKVETEAKIKQKLREIEENQKRIEKLEEYITTSKQSLEEQKKLEGELTEEVEMAKRRIDEINKELNQVMEQLGDARIDRQESSRQQRKAEIMESIKRLYPGSVYGRLIDLCQPTQKKYQIAVTKVLGKNMDAIIVDSEKTGRDCIQYIKEQRGEPETFLPLDYLEVKPTDEKLRELKGAKLVIDVIRYEPPHIKKALQYACGNALVCDNVEDARRIAFGGHQRHKTVALDGTLFQKSGVISGGASDLKAKARRWDEKAVDKLKEKKERLTEELKEQMKAKRKEAELRQVQSQAHGLQMRLKYSQSDLEQTKTRHLALNLQEKSKLESELANFGPRINDIKRIIQSREREMKDLKEKMNQVEDEVFEEFCREIGVRNIREFEEEKVKRQNEIAKKRLEFENQKTRLGIQLDFEKNQLKEDQDKVHMWEQTVKKDENEIEKLKKEEQRHMKIIDETMAQLQDLKNQHLAKKSEVNDKNHEMEEIRKKLGGANKEMTHLQKEVTAIETKLEQKRSDRHNLLQACKMQDIKLPLSKGTMDDISQEEGSSQGEDSVSGSQRISSIYAREALIEIDYGDLCEDLKDAQAEEEIKQEMNTLQQKLNEQQSVLQRIAAPNMKAMEKLESVRDKFQETSDEFEAARKRAKKAKQAFEQIKKERFDRFNACFESVATNIDEIYKALSRNSSAQAFLGPENPEEPYLDGINYNCVAPGKRFRPMDNLSGGEKTVAALALLFAIHSYKPAPFFVLDEIDAALDNTNIGKVANYIKEQSTCNFQAIVISLKEEFYTKAESLIGVYPEQGDCVISKVLTFDLTKYPDANPNPNEQ
B3: hSMC3 (natural protein)
chain: MYIKQVIIQGFRSYRDQTIVDPFSSKHNVIVGRNGSGKSNFFYAIQFVLSDEFSHLRPEQRLALLHEGTGPRVISAFVEIIFDNSDNRLPIDKEEVSLRRVIGAKKDQYFLDKKMVTKNDVMNLLESAGFSRSNPYYIVKQGKINQMATAPDSQRLKLLREVAGTRVYDERKEESISLMKETEGKREKINELLKYIEERLHTLEEEKEELAQYQKWDKMRRALEYTIYNQELNETRAKLDELSAKRETSGEKSRQLRDAQQDARDKMEDIERQVRELKTKISAMKEEKEQLSAERQEQIKQRTKLELKAKDLQDELAGNSEQRKRLLKERQKLLEKIEEKQKELAETEPKFNSVKEKEERGIARLAQATQERTDLYAKQGRGSQFTSKEERDKWIKKELKSLDQAINDKKRQIAAIHKDLEDTEANKEKNLEQYNKLDQDLNEVKARVEELDRKYYEVKNKKDELQSERNYLWREENAEQQALAAKREDLEKKQQLLRAATGKAILNGIDSINKVLDHFRRKGINQHVQNGYHGIVMNNFECEPAFYTCVEVTAGNRLFYHIVDSDEVSTKILMEFNKMNLPGEVTFLPLNKLDVRDTAYPETNDAIPMISKLRYNPRFDKAFKHVFGKTLICRSMEVSTQLARAFTMDCITLEGDQVSHRGALTGGYYDTRKSRLELQKDVRKAEEELGELEAKLNENLRRNIERINNEIDQLMNQMQQIETQQRKFKASRDSILSEMKMLKEKRQQSEKTFMPKQRSLQSLEASLHAMESTRESLKAELGTDLLSQLSLEDQKRVDALNDEIRQLQQENRQLLNERIKLEGIITRVETYLNENLRKRLDQVEQELNELRETEGGTVLTATTSELEAINKRVKDTMARSEDLDNSIDKTEAGIKELQKSMERWKNMEKEHMDAINHDTKELEKMTNRQGMLLKKKEECMKKIRELGSLPQEAFEKYQTLSLKQLFRKLEQCNTELKKYSHVNKKALDQFVNFSEQKEKLIKRQEELDRGYKSIMELMNVLELRKYEAIQLTFKQVSKNFSEVFQKLVPGGKATLVMKKGDVEGSQSQDEGEGSGESERGSGSQSSVPSVDQFTGVGIRVSFTGKQGEMREMQQLSGGQKSLVALALIFAIQKCDPAPFYLFDEIDQALDAQHRKAVSDMIMELAVHAQFITTTFRPELLESADKFYGVKFRNKVSHIDVITAEMAKDFVEDDTTHG

biological target: T1, hSA2; assay: co-IP

percent removed from the extract by anti-XSA2	Binder
~75%	B1
~75%	B2
~75%	B3

biological target: T2, hSA1; assay: co-IP

percent removed from the extract by anti-XSA1	Binder
~25%	B1
~25%	B2
~25%	B3
